Measured values from US20230025129A1 (KYMAB, published 2023).
Where a chain is given by its changes, count along the chain named. Names and notes keep the numbering of the source.

T1: rat matriptase-2 ECD protein his tag (rat, UniProt Q9DBI0 80-811 (mouse entry))
T1 construct: aa 80-811 of NCBI XP_006242057.1 with C-terminal linker and His tag; also called rat MTP-2 ECD
T1 chain: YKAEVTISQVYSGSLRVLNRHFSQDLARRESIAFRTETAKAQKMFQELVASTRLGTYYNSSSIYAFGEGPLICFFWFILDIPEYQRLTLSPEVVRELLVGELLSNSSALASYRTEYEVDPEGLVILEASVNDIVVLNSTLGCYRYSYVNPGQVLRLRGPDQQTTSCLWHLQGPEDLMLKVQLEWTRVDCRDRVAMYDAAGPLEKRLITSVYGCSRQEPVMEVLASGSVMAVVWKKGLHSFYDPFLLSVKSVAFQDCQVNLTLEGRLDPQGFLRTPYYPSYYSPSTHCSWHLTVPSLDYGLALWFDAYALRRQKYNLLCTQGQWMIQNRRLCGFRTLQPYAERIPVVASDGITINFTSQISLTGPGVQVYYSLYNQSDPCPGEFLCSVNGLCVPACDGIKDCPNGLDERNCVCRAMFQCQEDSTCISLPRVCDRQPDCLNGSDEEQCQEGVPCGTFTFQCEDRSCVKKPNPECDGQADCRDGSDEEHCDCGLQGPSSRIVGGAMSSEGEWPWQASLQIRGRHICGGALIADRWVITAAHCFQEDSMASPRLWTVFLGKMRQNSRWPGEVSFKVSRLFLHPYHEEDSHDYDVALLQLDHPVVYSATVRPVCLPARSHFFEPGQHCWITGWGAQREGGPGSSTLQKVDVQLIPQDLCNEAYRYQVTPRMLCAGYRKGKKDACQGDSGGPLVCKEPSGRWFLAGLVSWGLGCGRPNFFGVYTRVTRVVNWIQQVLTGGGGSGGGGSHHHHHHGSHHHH

T2: human matriptase-2 ECD protein his tag (human, UniProt Q8IU80 78-811)
T2 construct: also called human MTP-2 ECD; huMTP-2
T2 sequence: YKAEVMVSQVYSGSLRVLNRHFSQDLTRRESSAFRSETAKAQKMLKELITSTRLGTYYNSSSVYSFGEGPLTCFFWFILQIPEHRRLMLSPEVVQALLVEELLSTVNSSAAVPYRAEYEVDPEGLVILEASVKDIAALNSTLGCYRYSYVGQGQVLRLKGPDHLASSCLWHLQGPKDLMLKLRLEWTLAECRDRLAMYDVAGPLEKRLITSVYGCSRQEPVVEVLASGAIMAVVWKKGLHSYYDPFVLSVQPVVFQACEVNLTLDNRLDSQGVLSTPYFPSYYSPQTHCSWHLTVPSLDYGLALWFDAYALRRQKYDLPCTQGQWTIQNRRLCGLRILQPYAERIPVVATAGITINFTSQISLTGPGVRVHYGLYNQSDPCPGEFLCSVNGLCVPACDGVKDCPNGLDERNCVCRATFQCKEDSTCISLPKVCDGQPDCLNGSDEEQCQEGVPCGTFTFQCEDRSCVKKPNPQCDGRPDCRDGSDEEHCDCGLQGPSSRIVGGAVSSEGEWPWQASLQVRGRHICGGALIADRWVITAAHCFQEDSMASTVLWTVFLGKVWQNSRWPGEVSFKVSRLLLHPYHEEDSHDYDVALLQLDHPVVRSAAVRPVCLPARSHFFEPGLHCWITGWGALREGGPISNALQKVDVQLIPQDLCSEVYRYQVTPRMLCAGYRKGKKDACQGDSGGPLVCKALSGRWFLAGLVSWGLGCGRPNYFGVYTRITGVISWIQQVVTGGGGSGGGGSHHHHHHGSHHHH

B1: NORI-006 (antibody, human IgG4 S228P, kappa, V domains shown)
VH: EVQLVESGGGLIKPGRSLRLSCTGSGFTFGDFGLSWFRQAPGKGLEWISFIRSKPYGGTTDYAASVKGRFTISRDDSKNVAYLQMNSLKTEDTAVYYCARNEILTGYYIFDYWGQGTLVTVSS
VL: DIQMTQSPSSLSASLGDRVTITCQASQDINNYLNWYQVQPGKAPKLLIFDASILETGVPSRFSGSGSGTDFSFTISSLQPEDIATYYCQQYDNLPLTFGGGTKVDFKR
notes: human IgG4PE, kappa
B2: NORI-003 (antibody, human IgG4 S228P, kappa, V domains shown)
VH: EVQLVESGGGLVKPGRSLRLSCTGSGFTFGDFGMSWFRQAPGKGLEWVGFIRSKPYGGTTDYAPSVRGRFSISRDDSKGIVYLQMNSLRTEDTAVYYCSRNEILTGYYIFDYWGQGTLVTVSS
VL: B1 VL with Q27H, N30T, N34I, V38Q, Q39K, K45R, S72T, I83F, D92Y, F106I
notes: human IgG4PE, kappa; NORI-002 with the free cysteine of the VH domain mutated (printed as 'C49C')
B3: NORI-011 (antibody, human IgG4 S228P, lambda)
heavy: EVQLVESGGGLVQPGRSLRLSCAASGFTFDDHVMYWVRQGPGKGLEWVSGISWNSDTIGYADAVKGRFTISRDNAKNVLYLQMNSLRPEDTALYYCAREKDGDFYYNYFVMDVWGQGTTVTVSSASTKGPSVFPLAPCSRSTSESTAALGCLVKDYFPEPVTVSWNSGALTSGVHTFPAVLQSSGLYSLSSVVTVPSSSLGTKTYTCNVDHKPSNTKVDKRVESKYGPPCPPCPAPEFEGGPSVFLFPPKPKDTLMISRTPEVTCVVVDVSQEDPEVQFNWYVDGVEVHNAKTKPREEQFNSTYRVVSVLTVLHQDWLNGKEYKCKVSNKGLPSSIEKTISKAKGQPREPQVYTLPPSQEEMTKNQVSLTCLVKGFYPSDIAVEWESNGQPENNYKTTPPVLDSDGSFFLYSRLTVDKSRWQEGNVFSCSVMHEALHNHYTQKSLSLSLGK
light: QSALTQPPSASGSPGQSVTISCTGTSSDVGFYNFVSWYQQHPDKAPKVMIYEVSKRPSGVPDRFSGSKSGNTASLTVSGLQAEDEADYYCSSYAGSNKVVFGGGTKLTVLGQPKAAPSVTLFPPSSEELQANKATLVCLISDFYPGAVTVAWKADSSPVKAGVETTTPSKQSNNKYAASSYLSLTPEQWKSHRSYSCQVTHEGSTVEKTVAPTECS
notes: human IgG4PE, lambda; NORI-010 with a P124S mutation in the VH domain
B4: NORI-008 (antibody, human IgG4 S228P, kappa, V domains shown)
VH: QVQLQESGPGLVKPSETLSLTCSVSGGSVSSGRYYWTWIRQPPGKGLEWIGYISNSGNTNYNPSLKSRVTISLDTSKKQFSLSLSAVTAADTAVYYCARGFIYDYWFDPWGQGSLVTVSS
VL: DSQMTQSPSSLSASVGDRVTITCQASQDIDNYLNWYQQRPGKAPKLLIYDASKLETGVPSRFSGSGSGTDFTFTISSLQPEDFATYYCQQYGNLPITFGQGTRLDIKR
notes: human IgG4PE, kappa, in the in vitro assays; a mouse IgG1 format was used in one in vivo study only; also called NORI-008 hulgG4PE; NORI-008 IgG
B5: NORI-013 (antibody, human IgG4 S228P, lambda, V domains shown)
VH: EVQLVESGGGLIQAGRSLRLSCAASGFTFDEHVIYWVRQIPGKGLEWISSISWKSDIIAYADSVKGRFTISRDNAKNALYLQMNSLRAEDTALYYCAREKDGDFYYYYFAMDVWGQGTTVTVSS
VL: QSALTQPPSASGSPGQSVTLSCTGTSSDVGYYNYVSWYLQHPGKAPKLMIYEVSKRPSGVPDRFSGSKSANTASLTVSGLQAEDEADYYCSSYAGSNKVVFGGGTKVTVLG
notes: human IgG4PE, lambda
B6: NORI-014 (antibody, human IgG4 S228P, lambda, V domains shown)
VH: B5 VH with I34M, S52T
VL: B5 VL
notes: human IgG4PE, lambda

Molecular target: T1, rat matriptase-2 ECD protein his tag
Assay: SPR, his-tagged MTP-2 ECD protein (Table W)
Method: (§1) Off-rate screening was performed by surface plasmon resonance (SPR), using a Biacore 8K system (GE Healthcare). Anti-human Fc mix (˜1000 RU) were immobilised in both active and reference channels in HBS-P+ buffer (GE BR100671) pH 7.4. Anti-MTP-2 hulgG4PE antibodies were then captured for 60 sec at 10 μl/min at 1 μg/ml concentration (approximatively 35 and 50 RU were captured) only on the active channel. MTP-2 ECD protein analytes were then injected (at 100, 25, 6.25, 1.56 and 0 nM concentrations) for 120 sec (association time) at 30 μl/min and dissociation monitored for 600 sec. Multiple cycle kinetics mode was used with all 8 channels being used. Reference and background were subtracted from the sensorgrams for each antibody and data was fitted using a 1:1 interaction model in the Biacore evaluation software. Rmax, ka, kd globally fitted, RI=0.
NORI-011, NORI-008, NORI-003 and NORI-006 were all found to have cross-reactive binding to human, mouse, cyno and rat MTP-2 ECD proteins. […] The true KD value for NORI-008 could not be measured accurately for human or mouse MTP-2 due to a very slow off-rate.

Which Kd does the source give for B1 here?
Its Kd is 15.2 nM.

How did the Kd turn out when B2 was run?
The Kd was 19.2 nM.

Which Kd does the source give for B3 here?
The Kd was 3.01 nM.

With B4 as the binder, how does the Kd read?
The Kd was 7.64 nM.

What follows are binders tested against T2, human matriptase-2 ECD protein his tag (assay: SPR (Biacore 8K), huIgG4PE captured on anti-human Fc, MTP-2 ECD as analyte, 1:1 fit).
Method: as §1

Which “Binding Late top conc” value does the source give for B5 here?
The value was 14.6.

What about the Kd of the same binder?
The Kd was 1.79 nM.

And the Stoichiometry?
The Stoichiometry was 1.05.

And the koff?
Its koff is 5.78e-05 s⁻¹.

What about the kon of the same binder?
Its kon is 32200 M⁻¹ s⁻¹.

Which results are given for B6?
Binding Late top conc: 10.7; Kd: 1.71 nM; Stoichiometry: 0.9; koff: 4.6e-05 s⁻¹; kon: 26900 M⁻¹ s⁻¹

With B4 as the binder, how does the “Binding Late top conc” value read?
Its value is 35.8.

What about the Kd of the same binder?
The Kd was 0.0129 nM.

What about the Stoichiometry of the same binder?
The Stoichiometry was 0.72.

What about the koff of the same binder?
Its koff is 1.47e-05 s⁻¹.

And the kon?
The kon was 1.14e+06 M⁻¹ s⁻¹.
